Starred links: 1 amine or outer side, 2 acyl side, 3 side chain; linkers in the order of their positions; H or OH if unused. Positions of bridges follow the written chain, without caps; N, C: chain ends. Non-standard residues stand in square brackets, D forms with d. Primed or numbered codes have the meaning given here. *: point of attachment. (CCpCO2H)TriAzDap = (S)-1-(1-(2-amino-2-carboxyethyl)-1H-1,2,3-triazol-4-yl)cyclopropane-1-carboxylic acid, O=C([C@H](Cn1cc(C2(C(=O)[*:3])CC2)nn1)N[*:1])[*:2]; B5(10) = 2-amino-2-(pent-4-en-1-yl)hept-6-enoic acid, bis(4-pentenyl)glycine, stitching residue bearing both staples, C=CCCCC(CCCC=C)(N[*:1])C(=O)[*:2]; PyrS2(3) = (S)-3-amino-1-((pent-4-en-1-yloxy)carbonyl)pyrrolidine-3-carboxylic acid, stapling residue, C=CCCCOC(=O)N1CC[C@@](N[*:1])(C(=O)[*:2])C1; PyrS2″ = (S)-3-amino-1-((pent-4-en-1-yloxy)carbonyl)pyrrolidine-3-carboxylic acid (stapling residue), C=CCCCOC(=O)N1CC[C@@](N[*:1])(C(=O)[*:2])C1; B5(5) = 2,2-bis(4-pentenyl)glycine, 2-amino-2-(pent-4-en-1-yl)hept-6-enoic acid (stitching residue), C=CCCCC(CCCC=C)(N[*:1])C(=O)[*:2]; PyrS2 = (S)-3-amino-1-((pent-4-en-1-yloxy)carbonyl)pyrrolidine-3-carboxylic acid, C=CCCCOC(=O)N1CC[C@@](N[*:1])(C(=O)[*:2])C1; Phe(2-Cl) = N[C@@H](Cc1ccccc1Cl)C(=O)O; Bta = N[C@@H](Cc1csc2ccccc12)C(=O)O; αAllylPro = C=CC[C@@]1(C(=O)O)CCCN1; tBuAla = CC(C)(C)C[C@H](N)C(=O)O; 3Thi = N[C@@H](Cc1ccsc1)C(=O)O; S8 = C=CCCCCCC[C@](C)(N)C(=O)O; R5 = C=CCCC[C@@](C)(N)C(=O)O; Ms = CS(=O)(=O)*
Columns and labels:
[1] = target: T1, full-length beta-Catenin (Uniprot ID P35222) (Homo sapiens (Human), UniProt P35222 2-781); assay: fluorescence polarization competition; full-length beta-catenin + 5FAM-TCF4 10-53 probe
T1 construct: The FP protocol says 'full-length beta-Catenin (Uniprot ID P35222)'; also called bCat; B-Catenin
T1 sequence: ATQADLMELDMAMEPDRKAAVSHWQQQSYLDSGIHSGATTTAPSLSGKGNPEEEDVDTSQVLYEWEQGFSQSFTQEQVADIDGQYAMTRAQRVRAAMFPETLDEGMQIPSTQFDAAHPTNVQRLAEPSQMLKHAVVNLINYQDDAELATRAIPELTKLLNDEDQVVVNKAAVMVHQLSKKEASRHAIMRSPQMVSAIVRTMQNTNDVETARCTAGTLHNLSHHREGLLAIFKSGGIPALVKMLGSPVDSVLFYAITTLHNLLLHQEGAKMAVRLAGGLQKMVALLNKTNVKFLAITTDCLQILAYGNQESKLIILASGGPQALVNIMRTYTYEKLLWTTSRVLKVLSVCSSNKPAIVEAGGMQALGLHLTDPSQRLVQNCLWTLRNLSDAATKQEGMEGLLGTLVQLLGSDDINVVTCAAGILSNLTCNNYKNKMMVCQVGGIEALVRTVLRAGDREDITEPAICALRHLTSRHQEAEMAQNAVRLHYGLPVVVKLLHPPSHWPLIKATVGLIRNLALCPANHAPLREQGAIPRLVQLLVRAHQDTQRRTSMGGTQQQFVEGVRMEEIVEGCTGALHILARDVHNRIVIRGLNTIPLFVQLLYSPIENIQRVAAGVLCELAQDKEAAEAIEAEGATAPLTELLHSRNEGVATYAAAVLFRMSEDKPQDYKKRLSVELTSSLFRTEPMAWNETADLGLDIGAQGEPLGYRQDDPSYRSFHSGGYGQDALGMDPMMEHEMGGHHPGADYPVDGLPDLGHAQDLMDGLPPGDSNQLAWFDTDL
Protocol: (§1) The plate was incubated protected from light for 60 minutes at 20° C. prior to read. Reads were performed on a CLARIOstar plate reader (BMG Labtech) in duplicate, and data were fitted to a 1:1 binding model with hill slope using an in-house script. All provided concentrations are final concentrations.

[2] = target: T2, full-length beta-Catenin (Uniprot ID P35222) (Homo sapiens (Human), UniProt P35222 2-781); assay: fluorescence polarization competition, displacement of 5FAM-TCF4 10-53 from full-length beta-catenin
T2 construct: also called bCat; B-Catenin
T2 sequence: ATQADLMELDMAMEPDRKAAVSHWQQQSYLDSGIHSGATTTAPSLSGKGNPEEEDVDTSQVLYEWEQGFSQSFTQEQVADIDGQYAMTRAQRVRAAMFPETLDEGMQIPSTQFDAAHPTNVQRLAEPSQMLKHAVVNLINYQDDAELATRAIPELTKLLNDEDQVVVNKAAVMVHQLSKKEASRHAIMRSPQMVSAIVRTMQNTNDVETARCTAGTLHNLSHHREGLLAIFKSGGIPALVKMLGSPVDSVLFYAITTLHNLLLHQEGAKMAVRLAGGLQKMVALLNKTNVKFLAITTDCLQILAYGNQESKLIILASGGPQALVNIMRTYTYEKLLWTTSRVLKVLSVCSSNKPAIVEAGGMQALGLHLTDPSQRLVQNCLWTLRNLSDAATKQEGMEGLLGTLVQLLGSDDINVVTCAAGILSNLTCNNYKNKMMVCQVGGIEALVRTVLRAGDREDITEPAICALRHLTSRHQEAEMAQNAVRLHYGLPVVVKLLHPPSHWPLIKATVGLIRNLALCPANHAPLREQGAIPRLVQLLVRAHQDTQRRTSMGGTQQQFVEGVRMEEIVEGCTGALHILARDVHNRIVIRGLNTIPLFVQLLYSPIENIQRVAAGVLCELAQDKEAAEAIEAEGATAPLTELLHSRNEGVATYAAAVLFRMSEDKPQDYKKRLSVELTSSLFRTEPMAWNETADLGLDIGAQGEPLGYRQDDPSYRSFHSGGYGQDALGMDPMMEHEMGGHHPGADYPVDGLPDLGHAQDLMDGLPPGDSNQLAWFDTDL
Protocol: as §1

[3] = target: T3, B-cat-Halo (beta-catenin HaloTag fusion expressed in HEK293 cells) (Homo sapiens (Human), UniProt P35222 1-781); assay: cell-based or functional assay
T3 sequence: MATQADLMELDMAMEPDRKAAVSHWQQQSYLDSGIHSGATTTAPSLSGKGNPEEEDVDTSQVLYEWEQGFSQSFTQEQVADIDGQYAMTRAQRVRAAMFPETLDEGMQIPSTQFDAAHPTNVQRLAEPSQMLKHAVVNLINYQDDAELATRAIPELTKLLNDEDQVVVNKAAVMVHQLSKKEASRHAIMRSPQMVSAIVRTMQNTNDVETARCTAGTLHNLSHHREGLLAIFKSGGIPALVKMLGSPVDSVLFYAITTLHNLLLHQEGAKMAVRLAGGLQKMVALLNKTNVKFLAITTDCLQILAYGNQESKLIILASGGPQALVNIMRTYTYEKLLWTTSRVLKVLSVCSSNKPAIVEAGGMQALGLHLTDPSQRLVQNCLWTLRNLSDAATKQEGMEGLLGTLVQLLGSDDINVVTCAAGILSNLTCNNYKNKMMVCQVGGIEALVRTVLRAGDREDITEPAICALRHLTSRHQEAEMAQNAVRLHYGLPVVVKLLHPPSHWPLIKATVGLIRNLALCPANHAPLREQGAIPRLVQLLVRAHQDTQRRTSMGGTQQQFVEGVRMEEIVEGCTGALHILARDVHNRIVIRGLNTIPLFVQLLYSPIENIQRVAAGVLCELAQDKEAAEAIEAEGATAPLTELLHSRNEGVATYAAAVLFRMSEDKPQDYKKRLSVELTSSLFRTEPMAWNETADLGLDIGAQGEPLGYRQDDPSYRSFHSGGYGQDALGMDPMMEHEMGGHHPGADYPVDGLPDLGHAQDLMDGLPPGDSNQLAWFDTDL

[4] = target: T4, beta-catenin in DLD1 TCF/LEF luciferase reporter cells (UniProt P35222 1-781); assay: cell-based or functional assay
T4 sequence (looked up): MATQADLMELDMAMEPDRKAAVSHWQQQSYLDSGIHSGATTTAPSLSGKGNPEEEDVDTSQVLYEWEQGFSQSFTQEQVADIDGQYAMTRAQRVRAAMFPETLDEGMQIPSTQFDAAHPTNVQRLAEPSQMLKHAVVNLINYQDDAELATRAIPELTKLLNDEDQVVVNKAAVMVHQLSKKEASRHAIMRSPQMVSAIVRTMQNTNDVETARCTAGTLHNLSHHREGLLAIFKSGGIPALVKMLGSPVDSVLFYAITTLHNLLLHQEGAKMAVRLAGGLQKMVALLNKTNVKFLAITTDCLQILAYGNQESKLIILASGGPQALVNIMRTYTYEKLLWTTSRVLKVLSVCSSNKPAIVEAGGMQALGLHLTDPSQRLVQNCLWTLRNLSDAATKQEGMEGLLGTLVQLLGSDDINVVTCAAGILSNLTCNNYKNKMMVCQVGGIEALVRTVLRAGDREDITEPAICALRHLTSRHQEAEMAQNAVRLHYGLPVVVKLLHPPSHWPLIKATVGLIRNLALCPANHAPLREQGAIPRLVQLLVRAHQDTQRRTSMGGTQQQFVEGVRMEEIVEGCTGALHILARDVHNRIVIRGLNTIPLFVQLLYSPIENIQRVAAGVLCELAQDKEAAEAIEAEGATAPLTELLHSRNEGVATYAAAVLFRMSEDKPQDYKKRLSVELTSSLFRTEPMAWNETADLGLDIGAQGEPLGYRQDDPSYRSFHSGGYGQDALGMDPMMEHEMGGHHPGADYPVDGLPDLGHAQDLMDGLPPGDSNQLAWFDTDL

[5] = target: T5, full-length beta-Catenin (Uniprot ID P35222) (Homo sapiens (Human), UniProt P35222 2-781); assay: fluorescence polarization competition; full-length beta-catenin + 5FAM-TCF4(10-53) probe; peptide titrated
T5 construct: The fluorescence polarization protocol says only 'full-length'; also called bCat; B-Catenin
T5 sequence: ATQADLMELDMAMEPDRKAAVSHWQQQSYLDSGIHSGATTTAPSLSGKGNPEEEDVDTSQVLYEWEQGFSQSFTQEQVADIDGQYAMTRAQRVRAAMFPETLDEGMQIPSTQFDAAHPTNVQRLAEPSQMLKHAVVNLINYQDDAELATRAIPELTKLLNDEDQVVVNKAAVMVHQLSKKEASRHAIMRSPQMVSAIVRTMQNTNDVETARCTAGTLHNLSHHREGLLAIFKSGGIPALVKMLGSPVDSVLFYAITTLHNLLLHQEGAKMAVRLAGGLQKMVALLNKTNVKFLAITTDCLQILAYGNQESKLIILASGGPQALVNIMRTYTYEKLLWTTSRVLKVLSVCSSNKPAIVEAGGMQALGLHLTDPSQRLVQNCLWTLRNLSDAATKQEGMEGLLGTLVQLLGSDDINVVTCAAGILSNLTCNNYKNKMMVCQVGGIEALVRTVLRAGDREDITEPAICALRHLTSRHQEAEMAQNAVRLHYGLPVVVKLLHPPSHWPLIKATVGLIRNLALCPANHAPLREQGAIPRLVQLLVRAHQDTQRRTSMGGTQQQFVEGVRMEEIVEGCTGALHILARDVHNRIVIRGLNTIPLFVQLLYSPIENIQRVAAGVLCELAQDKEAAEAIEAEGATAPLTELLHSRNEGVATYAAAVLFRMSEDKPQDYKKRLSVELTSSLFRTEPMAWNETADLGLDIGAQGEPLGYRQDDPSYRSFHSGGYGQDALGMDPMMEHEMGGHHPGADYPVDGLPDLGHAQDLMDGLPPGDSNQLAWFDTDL
Protocol: as §1

B1: I-1296 (peptide)
peptide: Ac-[αAllylPro]DA[B5(10)]NTAAFL[PyrS2]F[Bta]Q-NH2
modifications: staple 1-4, 4-11; not fully specified; printed as Ac-PL3-Asp-Ala-B5-Asn-Thr-Ala-Ala-Phe-Leu-PyrS2-Phe-BztA-Gln-NH2
notes: later eluting HPLC peak (staple isomer composition); also called Ac-PL3-Asp-Ala-B5-Asn-Thr-Ala-Ala-Phe-Leu-PyrS2-Phe-BztA-Gln-NH2
**Q.** Which IC50 [1] does the source give for B1 here?
**A.** Its IC50 is 3.79 µM.

B2: I-1183 (peptide)
peptide: Ac-PD[tBuAla][R5]DDAAFN[PyrS2(3)][Phe(2-Cl)][Bta]Q-NH2
modifications: staple 4-11
notes: Stapled peptide, one staple. '2C1F' as printed (2ClF)
**Q.** How did the IC50 [2] turn out when B2 was run?
**A.** The IC50 was 0.409 µM.

B3: I-2445 (peptide)
peptide: Ac-[αAllylPro]D[tBuAla][B5(5)]D[(CCpCO2H)TriAzDap]AAFL[PyrS2″][3Thi][Bta]Q-NH2
modifications: staple 1-4, 4-11; not fully specified; printed as Ac-PL3-Asp-Npg-B5-Asp-[CCpCO2H]TriAzDap-Ala-Ala-Phe-Leu-PyrS2-3Thi-BztA-Gln-NH2
**Q.** What does the source list for B3?
**A.** NanoBRET Abs IC50 [3]: 17.1 µM; DLD1 4% Abs IC50 [4]: 9.5 µM

B4: I-710 (peptide)
peptide: Ms-[αAllylPro]DI[B5(5)]DEAAFQ[S8]F[Bta]Q-NH2
modifications: staple 1-4, 4-11
notes: Stapled peptide composition; also called MeSO2-PL3-Asp-Ile-B5-Asp-Glu-Ala-Ala-Phe-Gln-S8-Phe-BztA-Gln-NH2
**Q.** B4 was tested. Which EC50 [5] did it give?
**A.** Its EC50 is 0.073 µM.

Reference: patent US20240116985A1 (published 2024)
